Source: the supplement of paper PMC9732359
± gives the uncertainty stated by the source.

Assay: protein stability index of a GFP-peptide fusion (yeast GPS) (PSI 1-4); higher = more stable; sorted into four equal gates, so the index is relative within each strain
Settings: doa10∆
Summary of the method: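 For each peptide, the protein stability index sums the read frequency in every gate after multiplying it by the gate number. Read frequencies came from plasmids that were PCR-amplified from each gate and Illumina-sequenced, with reads assigned to strains by barcodes. The gates were four equal bins of GFP/Cherry fluorescence ratio applied to mid-log yeast in leucine-free medium carrying a pooled library of tiled 17-residue yeast protein peptides fused downstream of GFP on a Cherry-expressing plasmid.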

In order of falling protein stability index:
1. HSLSQAIKWDGSSGGVI [PRE3]  3.69 ± 0.28
2. HRINMDKYHPGYFGKVG [RPL28]  3.4 ± 0.074
3. IEPQVINYLALNAANYN [ECM29]  3.37 ± 0.13
4. IGKMYDEYLGSHTDQPA [NNF1]  3.37 ± 0.16
5. ICGYTRKEGPTIYYVDS [PRE2]  3.36 ± 0.095
6. IDNGAESSENEAEDDDN [RPC53]  3.33 ± 0.14
7. IIVENSGTSGDEDVDVL [RPN2]  3.3 ± 0.12
8. IGVVSLTNGVTEHVRQN [RRP6]  3.29 ± 0.14
9. IKSGVAKLESLLENSVD [MTW1]  3.29 ± 0.098
10. IDIPLDEQAFYNKDKAE [RPC37]  3.27 ± 0.18
11. HNHDTGCDENDSTVNKS [YDL088C/ASM4]  3.2 ± 0.09
12. IIDAKTRNEQTTIQTEK [MCD1]  3.19 ± 0.093
13. IDDVQTIKVVKRSMDAE [RPP1]  3.18 ± 0.054
14. IDHSDESNRQSVIVDSK [ESC2]  3.18 ± 0.13
15. IIRQLSELNEGNLSKRE [SRB8]  3.18 ± 0.12
16. HRASPADVSIKSILQEI [POP5]  3.11 ± 0.26
17. HTEDESTKELKFSDIIQ [BRN1]  3.11 ± 0.2
18. IKEIINASKVISTPIIN [RPO31]  3.08 ± 0.11
19. HPLHELIIQYPPNNARR [ISW2]  3.06 ± 0.065
20. IDYLQRNDKTLELMDSK [POP1]  3.06 ± 0.096
21. IAEGKSKQDASPKPYAV [RPL8B]  3.02 ± 0.077
22. IEDPNLSSNITFDGKPT [YMR153W/NUP53]  3.02 ± 0.069
23. IEEQGDALQDVEESSEK [DPB4]  3.02 ± 0.12
24. IKTRDACPLDNQPWQLA [HRT1]  3.02 ± 0.085
25. IGKDTFVTRKSRKRAKK [PRP8]  3.01 ± 0.092
26. IGLVKCTQMTDEGLLNM [GRR1]  3.01 ± 0.068
27. HKSDVMSVDIDKKASMI [ASC1]  3 ± 0.1
28. HGINLQNKKNLKWVAVV [SSN2]  2.98 ± 0.066
29. HLGKGTMTMDVFNDAHV [RPN1]  2.96 ± 0.073
30. IKCSQSSHLSDNDFIIN [POP5]  2.96 ± 0.09
31. HHDGKLWNLNAYRTDVI [PRP8]  2.94 ± 0.082
32. IISTAIADSTHVKRITK [ECM29]  2.94 ± 0.1
33. IESNKLAGVLYESRNVA [RRP6]  2.93 ± 0.062
34. IEEKLSSFSKKTLTEEV [YIL149C/MLP2]  2.92 ± 0.054
35. IEIEDEKVSSVLSALEG [RPP2A]  2.88 ± 0.037
36. HFTEIKLNKVDKNELQQ [SIR3]  2.86 ± 0.056
37. IKLSLKDKTKNISAEII [SMC4]  2.84 ± 0.082
38. ICNPVHKHREARGLTAT [RPL15B]  2.81 ± 0.078
39. IDWASPEYGRIIASASY [YGL100W/SEH1]  2.8 ± 0.064
40. HLSKSPADRPQGRRNSR [SIR4]  2.79 ± 0.089
41. HQQQQQQQQQQQQQQQQ [SNF5]  2.78 ± 0.056
42. IALLTLKESVEGEFNGD [PRE8]  2.77 ± 0.21
43. IEKCLKASELKLALGIA [RPN2]  2.75 ± 0.1
44. IDDKTQNDELTMGMRAL [DIS3]  2.74 ± 0.083
45. HSFAVLLHERKLLNDLA [NUT1]  2.68 ± 0.049
46. IAINFTVNHSEKFPNDV [RPP1]  2.68 ± 0.068
47. IEITNSNDLCSQIFDQL [SRB8]  2.67 ± 0.057
48. HTSIRETLENGETRMKM [SMC2]  2.65 ± 0.11
49. IKNISNRVGLTLDNIDD [ARP9]  2.65 ± 0.24
50. HLLRQTNAFLDSLTRAV [SNF2]  2.61 ± 0.061
51. HQNESSAASIPPQQTYH [RPN4]  2.57 ± 0.054
52. HTVTNSPNPTLQPVIPG [SNF5]  2.55 ± 0.052
53. IAAKLINSGLYSVLLES [YML103C/NUP188]  2.54 ± 0.099
54. IILPLDNATLTELVDKA [SSN2]  2.54 ± 0.11
55. IAAKTHILRISFLDRKR [SIN4]  2.53 ± 0.1
56. IETLDPALIRPGRIDRK [RPT2]  2.53 ± 0.26
57. IGGRRFSEGTSADREIQ [RPT4]  2.51 ± 0.085
58. IHLLHDDRGPVLESIVA [BRR2]  2.48 ± 0.089
59. HKMSMMAHRVKVIPYST [RPO21]  2.47 ± 0.065
60. HNSHLSLNYKFTTNKSK [SRP21]  2.46 ± 0.073
61. IESQNLDLIPHSSSVFK [SRB4]  2.46 ± 0.059
62. HVLVGDLIKFSAETLSE [FAS1]  2.38 ± 0.1
63. IEQSITKNIPITHRDLH [SSN8]  2.37 ± 0.047
64. IIEKITDQILQLLKEDS [RRP45]  2.35 ± 0.11
65. HVKRITKIAQSQTMAET [ECM29]  2.33 ± 0.057
66. IKQQQQQQQQQNGQQPP [YML103C/NUP188]  2.31 ± 0.036
67. HEYIRHLALEIGEVYND [RPN1]  2.29 ± 0.065
68. IASEVLIKQVPRLLGPQ [RPL1A]  2.28 ± 0.13
69. HTIFSDVCKTRFNHLVT [YML031W/NDC1]  2.27 ± 0.045
70. IISRLNADFQKPWFATV [FAS1]  2.27 ± 0.066
71. IECFKPGDIVRAQVLSL [CSL4]  2.25 ± 0.15
72. HIKKLLHQYYGDDESKI [FAS1]  2.24 ± 0.084
73. HKVSSQSTNLNRSAKNS [YCS4]  2.24 ± 0.054
74. HINSILLARVIQMNNSL [SNF11]  2.22 ± 0.13
75. IATGCKDGRIRIFKITE [YGL100W/SEH1]  2.22 ± 0.069
76. IFRGSLIGCIPYSKNAV [YDL088C/ASM4]  2.18 ± 0.062
77. HGQLKLSIQYMIQKVME [RPN5]  2.17 ± 0.1
78. IFERMIEKCLKASELKL [RPN2]  2.17 ± 0.15
79. ILCIFEGEKCHPQDFGN [SEC65]  2.13 ± 0.059
80. IKWENAFVSVYSKNNPN [PRP8]  2.11 ± 0.057
81. HLVMRAISLGLLKGSID [RPN9]  2.04 ± 0.095
82. IIFQQLLFWTDPRNLVN [YCG1]  2.04 ± 0.082
83. IKIFELKLPADATTWRY [IRR1]  2.03 ± 0.056
84. HIQVNQAPKQRRRTYRA [RPL17A]  1.89 ± 0.12
85. IKKYASVVRVLVHTQIR [RPL3]  1.87 ± 0.064
86. HILLTELLAYQFASPVR [FAS2]  1.81 ± 0.019
87. ICYNKKTEYVLNDLNHL [REC8]  1.8 ± 0.19
88. IDATLKEELLRDGVLTV [RRP45]  1.8 ± 0.047
89. IKKFAKLHMGTDDVRLA [RPL31A]  1.7 ± 0.037
90. IASDGSYVNYRHMALLV [RPO21]  1.68 ± 0.055
91. IKPKPLWSGKQILSVAI [RPO21]  1.62 ± 0.056
92. IIDEIKCIPKKGTVFQF [POP4]  1.6 ± 0.13
93. IIQLILWSIHPSRQFDH [SRB8]  1.57 ± 0.047
94. HESYCLPMDTNLFKINS [YMR129W/POM152]  1.54 ± 0.055
95. IHYSWSFILYYRRALQS [YML103C/NUP188]  1.48 ± 0.064
96. HPPFIKYACLAIRKNGQ [SIN4]  1.45 ± 0.042
97. IFKDLVTVFLFMLILAL [COB]  1.45 ± 0.04
98. IIRPILGKVRFANYKLL [SRB4]  1.44 ± 0.045
99. HVLKKNPLKNKQVLLRL [RPL4A]  1.43 ± 0.15
100. HKLVFVVRIKGINKIPP [RPL7A]  1.4 ± 0.038
101. HLELYTSQYGTPSTETA [PRE3]  1.39 ± 0.043
102. IELKTDWVRFLALALGI [RPN1]  1.38 ± 0.13
103. HLLLGFQVSNVISLGPN [YJL039C/NUP192]  1.37 ± 0.052
104. IHEIDERLAKVNEMNDQ [NNF1]  1.37 ± 0.089
105. IKRMAIRNIVEAAAVRD [RPS26A]  1.29 ± 0.069
